Drawing on PMC4598101, “Growth of Chitinophaga pinensis on Plant Cell Wall Glycans and Characterisation of a Glycoside Hydrolase Family 27 β-L-Arabinopyranosidase Implicated in Arabinogalactan Utilisation” (PLoS ONE, 2015), this text covers Km, kcat and kcat/Km for four proteins.

Substrate in data set [1]: O=[N+]([O-])c1ccc(O[C@H]2OC[C@H](O)[C@H](O)[C@H]2O)cc1
Kind of data set: continuous pNP release, spectrophotometer. It is filed as biochemical, Chitinophaga pinensis. Particulars: 50 mM sodium citrate pH 5.0, 30 °C. The text has this:
(§1) continuous pNP release, spectrophotometer on CpArap27 (Cpin_5740 gene product)

Substrate in data set [2]: O=[N+]([O-])c1ccc(O[C@H]2O[C@H](CO)[C@H](O)[C@H](O)[C@H]2O)cc1
Kind of data set: continuous pNP release, spectrophotometer. It is filed as biochemical, Chitinophaga pinensis. The following applies: 50 mM sodium citrate pH 5.0, 30 °C.
Text: as §1

B1: CpArap27 (Cpin_5740 gene product) (Chitinophaga pinensis DSM 2588) (protein)
chain: AQQKKDFHSWAPTPPMGWNSWDCYGPTVTEAEVKANADYMASHLKSSGWQYIIVDIRWYVANDKSHGYNETDPAYNIDAYGRFQPAVNRFPSAANGKGFKPLADYIHSKGLKFGIHIMRGVPVVAVNKKLPVKGTNVTAADIYSKQDQCKWLHDMYTIVPDKTGAQEYYNSLFDMYAAWGLDFVKVDDLSAPIYFTEEIEMIRKAITRTGRKILLSTSPGETPIAQGAHVQQHANMWRTVDDFWDNWPHLKDHFEVFDRWNKWRTTGAWPDGDMLPLGHIGIRAERGQPRMTSFTKDEQYTLMTLWTIFRSPLMFGGNLPDNDPFTLSLLTNKQVLQVLNNSSNNRPVFNDKDKAAWTADMPGKSAKYLAVFNKADKDAAAVNVDLSEIGIKGSCTITDLWTGKVLGKFTGSFAPQINPHGAGLYKVTP
notes: ~48 kDa; monomer by SEC
For the protein B1, in data set [1], the Km is given as 12.9 ± 3.27 mM, the catalytic constant (kcat) was 32.3 ± 3.58 s⁻¹ and the kcat/Km came to 2500 M⁻¹ s⁻¹.

B2: CpArap27 (Cpin_5740 gene product) (Chitinophaga pinensis DSM 2588; I73E) (protein)
chain: AQQKKDFHSWAPTPPMGWNSWDCYGPTVTEAEVKANADYMASHLKSSGWQYIIVDERWYVANDKSHGYNETDPAYNIDAYGRFQPAVNRFPSAANGKGFKPLADYIHSKGLKFGIHIMRGVPVVAVNKKLPVKGTNVTAADIYSKQDQCKWLHDMYTIVPDKTGAQEYYNSLFDMYAAWGLDFVKVDDLSAPIYFTEEIEMIRKAITRTGRKILLSTSPGETPIAQGAHVQQHANMWRTVDDFWDNWPHLKDHFEVFDRWNKWRTTGAWPDGDMLPLGHIGIRAERGQPRMTSFTKDEQYTLMTLWTIFRSPLMFGGNLPDNDPFTLSLLTNKQVLQVLNNSSNNRPVFNDKDKAAWTADMPGKSAKYLAVFNKADKDAAAVNVDLSEIGIKGSCTITDLWTGKVLGKFTGSFAPQINPHGAGLYKVTP
notes: ~48 kDa; monomer by SEC
Regarding B2, in data set [1], the Km was found to be 6.56 ± 3.39 mM, the kcat turned out to be 0.528 ± 0.115 s⁻¹ and the kcat/Km turned out to be 80.5 M⁻¹ s⁻¹. Further, in data set [2], the Km is listed as 35.6 ± 15.2 mM, the kcat was 0.105 ± 0.0518 s⁻¹ and the kcat/Km was determined as 2.95 M⁻¹ s⁻¹.

B3: CpArap27 (Cpin_5740 gene product) (Chitinophaga pinensis DSM 2588; I73C) (protein)
chain: AQQKKDFHSWAPTPPMGWNSWDCYGPTVTEAEVKANADYMASHLKSSGWQYIIVDCRWYVANDKSHGYNETDPAYNIDAYGRFQPAVNRFPSAANGKGFKPLADYIHSKGLKFGIHIMRGVPVVAVNKKLPVKGTNVTAADIYSKQDQCKWLHDMYTIVPDKTGAQEYYNSLFDMYAAWGLDFVKVDDLSAPIYFTEEIEMIRKAITRTGRKILLSTSPGETPIAQGAHVQQHANMWRTVDDFWDNWPHLKDHFEVFDRWNKWRTTGAWPDGDMLPLGHIGIRAERGQPRMTSFTKDEQYTLMTLWTIFRSPLMFGGNLPDNDPFTLSLLTNKQVLQVLNNSSNNRPVFNDKDKAAWTADMPGKSAKYLAVFNKADKDAAAVNVDLSEIGIKGSCTITDLWTGKVLGKFTGSFAPQINPHGAGLYKVTP
notes: ~48 kDa; monomer by SEC
With B3, in data set [1], the Km was 21.5 ± 10.4 mM, the kcat turned out to be 0.403 ± 0.119 s⁻¹ and the kcat/Km turned out to be 18.8 M⁻¹ s⁻¹.

B4: CpArap27 (Cpin_5740 gene product) (Chitinophaga pinensis DSM 2588; I73D) (protein)
chain: AQQKKDFHSWAPTPPMGWNSWDCYGPTVTEAEVKANADYMASHLKSSGWQYIIVDDRWYVANDKSHGYNETDPAYNIDAYGRFQPAVNRFPSAANGKGFKPLADYIHSKGLKFGIHIMRGVPVVAVNKKLPVKGTNVTAADIYSKQDQCKWLHDMYTIVPDKTGAQEYYNSLFDMYAAWGLDFVKVDDLSAPIYFTEEIEMIRKAITRTGRKILLSTSPGETPIAQGAHVQQHANMWRTVDDFWDNWPHLKDHFEVFDRWNKWRTTGAWPDGDMLPLGHIGIRAERGQPRMTSFTKDEQYTLMTLWTIFRSPLMFGGNLPDNDPFTLSLLTNKQVLQVLNNSSNNRPVFNDKDKAAWTADMPGKSAKYLAVFNKADKDAAAVNVDLSEIGIKGSCTITDLWTGKVLGKFTGSFAPQINPHGAGLYKVTP
notes: ~48 kDa; monomer by SEC
B4: in data set [1], the Km stood at 8.63 ± 2.14 mM, the kcat is 0.00718 ± 0.000775 s⁻¹ and the kcat/Km turned out to be 0.832 M⁻¹ s⁻¹. Further, in data set [2], the Km is listed as 35.3 ± 11.9 mM and the specificity constant (kcat/Km) was 0.00585 M⁻¹ s⁻¹.

One may read the Km as the substrate concentration at which the rate is half of its maximum. As a reminder, the kcat is the maximal rate divided by the concentration of active sites. The kcat/Km is the turnover number divided by the Michaelis constant.
